# According to paper PMC10178869:
# T1: E. coli Aquaporin Z (AqpZ) (E. coli), P60844
# T1 chain: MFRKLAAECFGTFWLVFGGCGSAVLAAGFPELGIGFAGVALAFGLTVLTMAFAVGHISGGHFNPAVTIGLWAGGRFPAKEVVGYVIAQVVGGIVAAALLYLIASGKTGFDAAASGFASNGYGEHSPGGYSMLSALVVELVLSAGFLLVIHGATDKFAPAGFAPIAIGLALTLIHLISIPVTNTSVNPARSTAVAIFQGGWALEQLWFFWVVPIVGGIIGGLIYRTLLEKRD
# B1: E. coli Aquaporin Z (AqpZ), P60844 1-231 (natural protein)
# chain: T1 chain
# What was measured:
# [1] = target: AqpZ nanodiscs (AqpZ, MSP1E3D1 and DOPC/POPG 4:1) (E. coli | not stated) (UniProt P60844); experiment: mass photometry; 10 nM AqpZ nanodiscs in TEN buffer (300 mM NaCl); nanodisc with nanodisc
# [2] = target: T1, E. coli Aquaporin Z (AqpZ) (E. coli), …; experiment: SDS-PAGE with or without heating; purified AqpZ nanodiscs (ND) or AqpZ in OG micelles, heated to 70 °C or unheated; conditions: remark: other sources report otherwise
Molecule,stoichiometry N [1],stoichiometry N [2]
"AqpZ nanodiscs (AqpZ, MSP1E3D1 and DOPC/POPG 4:1) (from UniProt P60844 1-231) (complex)",2,–
B1,–,4
